According to the RNAGym collection of RNA variant scans (doi:10.7554/elife.80360):

B1: HDV Ribozyme (parent)
chain: GGCCGGCAUGGUCCCAGCCUCCUCGCUGGCGCCGGCUGGGCAACAUUCCGAGGGGACCGUCCCCUCGGUAAUGGCGAAUGGGACCCA

Variants of: B1
Experiment: self-cleavage, relative activity (ratio to wild type); higher = more cleavage; co-transcriptional

First: C33U G52U
Second: C33U G52A
The self-cleavage of the first is higher: 0.747 for the first, 0.71 for the second.

Compared with C33U C36U, G35A G80C is lower in self-cleavage: 0.519 for the first, 0.162 for the second.

First: G35A G80U
Second: G35A G80A
The self-cleavage of the first is lower: 0.151 for the first, 0.196 for the second.

Compared with C33U C57A, C33U C57G is higher in self-cleavage: 0.935 for the first, 1.04 for the second.

Compared with C33U C57U, C33A G73C is lower in self-cleavage: 0.719 for the first, 0.149 for the second.

First: C33G U37G
Second: C32U U47A
The self-cleavage of the first is lower: 0.161 for the first, 0.943 for the second.

Compared with C32U U47G, C33G G53C is lower in self-cleavage: 1.03 for the first, 0.156 for the second.

Compared with G34C C36G, G35A C57A is higher in self-cleavage: 0.095 for the first, 0.545 for the second.

First: G34A C41U
Second: G34A C41A
The self-cleavage of the first is higher: 0.217 for the first, 0.157 for the second.

Compared with G34C U65A, G34C U65G is higher in self-cleavage: 0.138 for the first, 0.208 for the second.

First: G34C G76C
Second: G34C G76U
The self-cleavage of the first is lower: 0.332 for the first, 0.358 for the second.

First: G34C G67U
Second: G34C G67C
The self-cleavage of the first is higher: 0.166 for the first, 0.123 for the second.

First: G34C G67A
Second: G34C C66G
The self-cleavage of the first is higher: 0.211 for the first, 0.169 for the second.

First: G34C C61U
Second: C32U U37C
The self-cleavage of the first is lower: 0.154 for the first, 1.29 for the second.

Going from C32U U37G to G34C G50C, the self-cleavage rises from 0.166 to 0.288.

Going from G35A C41A to G34C C48A, the self-cleavage falls from 0.562 to 0.161.

First: C33G G39A
Second: G34U G73U
The self-cleavage of the first is higher: 0.0997 for the first, 0.0455 for the second.

Going from G34U G73A to G34C A71U, the self-cleavage falls from 0.109 to 0.095.

Going from G34C C58U to C33U C85G, the self-cleavage rises from 0.181 to 0.494.

Compared with G34U A78G, G34U A78C is lower in self-cleavage: 0.111 for the first, 0.0369 for the second.

Going from C33U U65C to C33U U65G, the self-cleavage rises from 0.969 to 1.14.

Going from C33U U65A to C32U C75A, the self-cleavage falls from 0.739 to 0.0692.

First: G34C G40C
Second: G34C G40A
The self-cleavage of the first is lower: 0.113 for the first, 0.354 for the second.

Going from C32U C86G to G35A A51G, the self-cleavage falls from 0.739 to 0.673.

First: C33G U79G
Second: G35A C49G
The self-cleavage of the first is lower: 0.0665 for the first, 0.425 for the second.

Going from C33U A42U to G35A U79G, the self-cleavage rises from 0.345 to 0.397.

Going from C33A C49G to C33G U60C, the self-cleavage rises from 0.166 to 0.196.

Compared with C33G U60A, G34A U60A is higher in self-cleavage: 0.19 for the first, 0.204 for the second.

First: C33G G82A
Second: G34C C44A
The self-cleavage of the first is lower: 0 for the first, 0.0831 for the second.

Going from G34A G50C to C33G A83C, the self-cleavage falls from 0.267 to 0.252.

First: C33A G67C
Second: G35A U72G
The self-cleavage of the first is higher: 0.277 for the first, 0.251 for the second.

Compared with C33A G40C, G34C G81C is lower in self-cleavage: 0.217 for the first, 0.115 for the second.

Compared with C32U C64A, C33A U65A is lower in self-cleavage: 0.831 for the first, 0.332 for the second.

Going from G34C G53C to G34A C36G, the self-cleavage rises from 0.0898 to 0.122.

Going from C33U A83C to C33U C58A, the self-cleavage rises from 0.242 to 1.06.

First: G34A C63G
Second: C33G G68U
The self-cleavage of the first is lower: 0.133 for the first, 0.173 for the second.

First: C33G G68C
Second: G35A C36A
The self-cleavage of the first is lower: 0.0875 for the first, 0.115 for the second.

First: G34C A45U
Second: G34C A45C
The self-cleavage of the first is lower: 0.0378 for the first, 0.107 for the second.

Compared with C33U A87G, C33U A87U is higher in self-cleavage: 0.79 for the first, 0.885 for the second.

Compared with C33A G53C, C33A G59A is higher in self-cleavage: 0.332 for the first, 0.343 for the second.

Going from C33G U72C to C32U G74U, the self-cleavage rises from 0.115 to 0.176.

Compared with C33U G34U, C32U G67C is higher in self-cleavage: 0.219 for the first, 0.997 for the second.

Compared with G34C G55A, G34C G55U is lower in self-cleavage: 0.147 for the first, 0.113 for the second.

Going from G34U C85G to G34U C85A, the self-cleavage rises from 0.128 to 0.164.

First: C33G C44U
Second: C33G C44A
The self-cleavage of the first is higher: 0.172 for the first, 0.0978 for the second.

First: G34U A77U
Second: C33G G35A
The self-cleavage of the first is higher: 0.163 for the first, 0.0604 for the second.

First: C33A C61A
Second: C32U G40C
The self-cleavage of the first is higher: 0.281 for the first, 0.104 for the second.

Compared with C33U A78C, G34U is higher in self-cleavage: 0.0831 for the first, 0.19 for the second.

Compared with G34A, G34C is higher in self-cleavage: 0.189 for the first, 0.195 for the second.

Compared with C33U G35U, C33U G35C is lower in self-cleavage: 0.383 for the first, 0.237 for the second.

Going from C33U G35A to G34U C58U, the self-cleavage falls from 0.205 to 0.153.

First: C33A A51C
Second: G34A C62A
The self-cleavage of the first is higher: 0.147 for the first, 0.0692 for the second.

Compared with G34A C62U, C33G A78G is lower in self-cleavage: 0.106 for the first, 0 for the second.

Compared with C33U C44G, G35C A56C is lower in self-cleavage: 0.453 for the first, 0.302 for the second.

Compared with G34U A83U, G34U A83C is lower in self-cleavage: 0.173 for the first, 0.133 for the second.

First: G35A C48U
Second: G35A C48G
The self-cleavage of the first is lower: 0.499 for the first, 0.539 for the second.

Going from C32U C58G to G34U G80A, the self-cleavage falls from 0.646 to 0.113.

Going from G34U G80C to C33U U69A, the self-cleavage rises from 0.143 to 0.898.

Going from G34A G40U to C33G C62U, the self-cleavage rises from 0.0685 to 0.259.

Going from G35A A77G to C33A G54A, the self-cleavage falls from 0.277 to 0.253.

Going from G34U G81A to C33U U72C, the self-cleavage rises from 0.166 to 0.268.

Going from C33U U72A to G34U U47C, the self-cleavage falls from 0.346 to 0.234.

Going from C33U G73A to C33U G73U, the self-cleavage falls from 0.554 to 0.391.

First: C33U G73C
Second: G34C G68U
The self-cleavage of the first is higher: 0.31 for the first, 0.199 for the second.

First: G35A C86U
Second: G34A C58A
The self-cleavage of the first is higher: 0.712 for the first, 0.203 for the second.

First: G34C C64A
Second: G34U G59C
The self-cleavage of the first is lower: 0.0739 for the first, 0.142 for the second.

Going from G34U G59A to G35A C64G, the self-cleavage rises from 0.203 to 0.31.

First: G34A C85G
Second: C33U C63A
The self-cleavage of the first is lower: 0.0978 for the first, 0.716 for the second.

First: C33A C62U
Second: C33A C62A
The self-cleavage of the first is lower: 0.241 for the first, 0.344 for the second.

First: C33A C62G
Second: C33G C49A
The self-cleavage of the first is higher: 0.208 for the first, 0.119 for the second.

Going from C33A C58A to C33A C58U, the self-cleavage falls from 0.19 to 0.142.

Going from G34C A70C to G34U C66U, the self-cleavage rises from 0.123 to 0.166.

First: G34U U65A
Second: C32U G54A
The self-cleavage of the first is lower: 0.0923 for the first, 0.891 for the second.

Going from G34A A70G to C32U G76C, the self-cleavage rises from 0.233 to 0.854.

Going from C32U G76U to C32U G76A, the self-cleavage rises from 0.751 to 0.946.

Going from G34A G73U to C33U G68A, the self-cleavage rises from 0.0437 to 0.796.

Compared with C33U G38A, G34U A56G is higher in self-cleavage: 0.172 for the first, 0.288 for the second.

Compared with C33U U37C, G34C U47A is lower in self-cleavage: 0.923 for the first, 0.161 for the second.

Going from G34C U47G to C33U U46C, the self-cleavage rises from 0.133 to 0.68.

First: G35A C62A
Second: C33U A77C
The self-cleavage of the first is higher: 0.526 for the first, 0.298 for the second.

Compared with C33A C48G, C33A C48U is higher in self-cleavage: 0.125 for the first, 0.163 for the second.

Going from C33A G74C to C33A G74U, the self-cleavage falls from 0.106 to 0.0755.

First: G35A A45U
Second: C32U C49G
The self-cleavage of the first is lower: 0.406 for the first, 0.743 for the second.

In the case of G34U G76U, the self-cleavage is reported as 0.132.
